Assay results taken from patent publication US20200325237A1 (AVIDITY BIOSCIENCES, published 2020).

Key:
[1] = target: T1, recombinant cyno transferrin receptor protein (Sino Biological 90253-C07H) (cyno, UniProt H9EXL1 89-760 (rhesus entry)); experiment: ELISA on plate-coated recombinant cyno TfR1 (CD71); fit: specific binding with Hill slope
T1 construct: Bought protein coated on ELISA plates; also called recombinant cyno TfR1; cynoTfR1
How it was run: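 Plates coated overnight at 4° C with recombinant human or cyno TfR1 (1 ng/μL), blocked, then incubated with samples up to 10 nM for 1 h at room temperature. Bound IgG detected with HRP anti-human Fcγ and TMB (A450 minus A570); Bmax, h and Kd from specific-binding-with-Hill-slope fit.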

[2] = target: T2, TfR2 (transferrin receptor 2) (UniProt Q9UP52 105-801, limits assumed); experiment: A450 plate assay on TfR2 (method not described in the text)
T2 sequence (looked up): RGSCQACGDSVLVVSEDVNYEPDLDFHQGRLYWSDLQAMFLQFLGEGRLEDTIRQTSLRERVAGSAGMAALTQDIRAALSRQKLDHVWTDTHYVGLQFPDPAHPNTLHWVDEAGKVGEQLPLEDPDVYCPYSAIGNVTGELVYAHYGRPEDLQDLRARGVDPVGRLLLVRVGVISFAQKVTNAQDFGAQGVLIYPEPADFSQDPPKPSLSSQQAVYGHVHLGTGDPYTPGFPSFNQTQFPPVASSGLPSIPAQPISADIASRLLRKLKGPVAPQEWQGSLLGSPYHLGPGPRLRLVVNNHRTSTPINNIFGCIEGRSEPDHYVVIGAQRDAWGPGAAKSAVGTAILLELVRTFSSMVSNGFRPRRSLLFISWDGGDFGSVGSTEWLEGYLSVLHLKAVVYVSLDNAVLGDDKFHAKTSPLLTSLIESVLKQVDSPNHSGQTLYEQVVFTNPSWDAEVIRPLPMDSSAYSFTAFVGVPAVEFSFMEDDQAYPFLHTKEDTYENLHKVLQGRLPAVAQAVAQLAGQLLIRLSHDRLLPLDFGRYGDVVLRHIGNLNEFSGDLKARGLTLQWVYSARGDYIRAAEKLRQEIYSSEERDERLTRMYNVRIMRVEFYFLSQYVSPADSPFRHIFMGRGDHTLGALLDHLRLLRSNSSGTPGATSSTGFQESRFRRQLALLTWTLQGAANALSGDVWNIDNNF

[3] = target: T3, hTfR (human transferrin receptor, source and construct not stated) (human, UniProt P02786 89-760, limits assumed); experiment: ELISA; ratio of the Kd on transferrin-captured hTfR to the Kd on directly coated hTfR
How it was run: (§1)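 Human holo-transferrin coated at 500 ng/mL (4 °C overnight) captured hTfR (200 ng/mL, 30 min); comparison plates carried directly coated hTfR. Biotinylated antibodies, 3-fold series from 20 nM (pre-addition), bound 1 h; streptavidin-HRP/TMB, A450 minus A570. Kd from specific binding with Hill slope; shift judged against reference antibody AF2474 with transferrin-overlapping epitope.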

[4] = target: T3, hTfR (human transferrin receptor, …); experiment: ELISA, biotinylated antibody on hTfR captured by plate-coated human holo-transferrin (Tf+TfR); fit: specific binding with Hill slope
How it was run: as §1

[5] = target: T3, hTfR (human transferrin receptor, …); experiment: SPR (BioRad ProteOn XPR36), mAb captured on Protein A, hTfR as analyte, 25 C; 13E4_WT 2nd run
Method: The binding kinetics of nine exemplary humanized anti-TfR antibodies and the parent chimeric antibody were characterized. Studies were run on a BioRad ProteOn XPR36 optical biosensor using a GLM sensor chip coated with Protein A for mAb capture. Running buffer included 10 mM EPES, 150 mM NaCl, pH 7.4 with 0.05 tween-20 with 0.2 mg/ml BSA. Data were collected at 25 degrees C. All mAbs were diluted into running buffer to 2 ug/ml based on the stock concentration provided. Each was then captured for 40 seconds over a Protein A surface.
hTfR (100 ug) was dissolved into […] of water to yield a 4.3 uM stock concentration. hTfR was dilted to 43 nM as the highest concentration and tested in a 3 fold dilution series. hTfR was injected at 200 ul/min for 2 minutes followed by a one-hour dissociation phase.

T1 sequence (chain, as listed by the source C07H C07H): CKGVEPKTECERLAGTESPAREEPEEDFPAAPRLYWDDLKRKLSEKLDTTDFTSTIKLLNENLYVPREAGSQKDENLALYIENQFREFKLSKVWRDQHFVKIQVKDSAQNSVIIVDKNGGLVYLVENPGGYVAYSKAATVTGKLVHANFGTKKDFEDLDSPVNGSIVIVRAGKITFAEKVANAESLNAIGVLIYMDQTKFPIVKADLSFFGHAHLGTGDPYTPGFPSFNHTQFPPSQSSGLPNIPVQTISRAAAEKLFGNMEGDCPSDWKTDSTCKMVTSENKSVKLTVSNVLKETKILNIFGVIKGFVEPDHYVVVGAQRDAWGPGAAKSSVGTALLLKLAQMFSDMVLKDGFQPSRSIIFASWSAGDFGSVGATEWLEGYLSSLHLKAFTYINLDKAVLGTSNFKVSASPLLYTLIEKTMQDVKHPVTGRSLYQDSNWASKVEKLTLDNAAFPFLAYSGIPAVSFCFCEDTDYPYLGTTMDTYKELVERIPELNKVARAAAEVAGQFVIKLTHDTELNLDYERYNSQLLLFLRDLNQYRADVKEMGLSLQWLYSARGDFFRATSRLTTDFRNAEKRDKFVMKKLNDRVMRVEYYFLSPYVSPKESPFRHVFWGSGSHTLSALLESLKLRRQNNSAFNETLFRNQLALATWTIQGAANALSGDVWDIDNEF
T3 sequence (P02786 89-760 limits assumed): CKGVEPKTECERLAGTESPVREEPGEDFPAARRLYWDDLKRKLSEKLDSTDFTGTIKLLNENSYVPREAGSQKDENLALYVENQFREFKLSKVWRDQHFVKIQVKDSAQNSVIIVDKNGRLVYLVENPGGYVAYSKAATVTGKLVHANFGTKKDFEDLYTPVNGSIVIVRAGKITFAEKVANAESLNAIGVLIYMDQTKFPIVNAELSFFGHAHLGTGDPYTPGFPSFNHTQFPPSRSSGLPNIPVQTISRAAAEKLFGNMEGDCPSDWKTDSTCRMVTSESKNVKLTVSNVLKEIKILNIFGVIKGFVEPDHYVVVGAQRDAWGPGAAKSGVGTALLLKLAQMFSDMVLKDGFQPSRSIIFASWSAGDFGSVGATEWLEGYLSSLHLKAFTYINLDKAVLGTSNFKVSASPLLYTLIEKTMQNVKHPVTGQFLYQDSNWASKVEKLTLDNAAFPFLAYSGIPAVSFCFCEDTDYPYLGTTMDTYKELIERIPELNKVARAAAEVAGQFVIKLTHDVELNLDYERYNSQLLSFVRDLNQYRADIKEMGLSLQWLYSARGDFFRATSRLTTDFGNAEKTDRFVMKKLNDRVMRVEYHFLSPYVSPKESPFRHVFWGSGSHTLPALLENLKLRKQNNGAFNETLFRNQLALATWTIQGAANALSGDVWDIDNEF

- Bmax [1]: 99.1 % max binding
- Kd [1]: 0.00582 nM
- h [1]: 1.34
- binding result [2]: no binding (tested: 1000 nM)
- Kd(Tf+TfR)/Kd(TfR) [3]: 3.1
- Bmax [4]: 3.45 A450
- Kd [4]: 0.0518 nM
- h [4]: 1.57
- koff [5]: 1.5e-06 s⁻¹
B1: 13E4_WT (parent chimeric anti-TfR antibody) (antibody, V domains shown)
VH: QVQLQQPGAELVKPGASVKLSCKASGYTFTNYWMHWVKQRPGQGLEWIGEINPINGRSNYGERFKTKATLTVDKSSSTAYMQLSSLTSEDSAVYYCARGTRAMHYWGQGTSVTVSS
VL: DIQMTQSPASLSVSVGETVTITCRTSENIYNNLAWYQQKQGKSPQLLVYAATNLADGVPSRFSGSGSGTQYSLKINSLQSEDFGNYYCQHFWGTPLTFGAGTKLELK
notes: also called 13E4_WT 1st; 13E4_WT 2nd
